Experimental data as given in PMC3327659.

Legend:
[1] = target: T1, DR0865 (Fur homologue) (Deinococcus radiodurans R1?) (UniProt Q9RW04); assay: EMSA; conditions: 30 mM Tris-HCl pH 6.8, 50 mM NaCl, 5% glycerol, 50 ug/mL calf thymus DNA, 50 ug/mL BSA, Mn2+ or Fe2+ (varied), 10 nM FITC-DNA, 30 min at 4 C; 5% native PAGE
T1 sequence: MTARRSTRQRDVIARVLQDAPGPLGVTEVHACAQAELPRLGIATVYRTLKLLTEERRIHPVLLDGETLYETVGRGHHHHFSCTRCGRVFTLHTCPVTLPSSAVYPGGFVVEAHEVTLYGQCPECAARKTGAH

[2] = target: T2, DR2539 (Deinococcus radiodurans R1 (ATCC13939)) (UniProt Q9RRF3); assay: EMSA; conditions: 30 mM Tris-HCl pH 6.8, 50 mM NaCl, 5% glycerol, 50 ug/mL calf thymus DNA, 50 ug/mL BSA, Mn2+ or Fe2+ (varied), 10 nM FITC-DNA, 30 min at 4 C; 5% native PAGE
T2 sequence: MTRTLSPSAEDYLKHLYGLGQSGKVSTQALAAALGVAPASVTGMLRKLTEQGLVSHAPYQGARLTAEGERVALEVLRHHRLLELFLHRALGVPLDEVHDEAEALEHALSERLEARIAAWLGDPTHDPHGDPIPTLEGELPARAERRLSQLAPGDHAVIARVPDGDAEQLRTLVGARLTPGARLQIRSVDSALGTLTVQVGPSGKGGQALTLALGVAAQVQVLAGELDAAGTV

With “CAGGCTGGGAGAACGGGAATCCATGGCCTTTATTTTAGGCGCGACTAAAATAGTTGTCCAACGGCGTGGGCTTGAGTTCGTCTTAAAGGCCGACTTTTTTGTGAAAAATGCCTCTTTCCCAAGATCCAGTCAGATTCCGTCACGCTGGGTCATCTGGTTTTCAGGGTGCTGTCACATATTTGCTAGAGGCTC (double strand) [p1709b (mntH promoter with inverted repeat)]” as the sequence, how does the binding [1] read?
The binding was “no binding”.

What about the binding [2] of the same sequence?
Its binding is “binds”.

How did the binding [2] turn out when “GAGCCTCTAGCAAATATGTGACAGCACCCTGAAAACCAGATGACCCAGCGTGACGGAATCTGACTGGATCTTGGGAAAGAGGCATTTTTCACAAAAAAGTCGGCCTTTAAGACGAACTCAAGCCCACGCCGTTGGACA (double strand) [p1709a (mntH promoter lacking inverted repeat)]” was run?
The binding was “no binding”.
